Assay [1] deals with T1, Transmembrane activator and CAML interactor (TACI) on cells (UniProt O14836 1-293, limits assumed).
T1 construct: whole, on cells; also called tumor necrosis factor receptor superfamily member 13B (TNFRSF13B)
T1 sequence (looked up): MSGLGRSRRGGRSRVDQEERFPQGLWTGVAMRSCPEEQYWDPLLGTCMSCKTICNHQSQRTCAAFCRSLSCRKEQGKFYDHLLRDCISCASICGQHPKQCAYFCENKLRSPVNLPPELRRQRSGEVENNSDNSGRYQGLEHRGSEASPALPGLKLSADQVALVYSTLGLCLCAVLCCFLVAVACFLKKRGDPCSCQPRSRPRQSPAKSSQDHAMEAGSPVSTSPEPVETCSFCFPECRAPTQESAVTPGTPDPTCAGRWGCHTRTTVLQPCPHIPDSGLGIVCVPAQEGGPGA
Description: flow cytometry on JVM2 cells (endogenous TACI). How it is done: (§1) Cells were spun down at 1200 rpm for 6 minutes at 4° C. to remove primary antibodies. Cells were then washed once with 200 μL of full medium per well. Samples were detected with premixed anti-His Biotin Streptavidin Alexa fluor 647 by adding 100 μL of diluted secondary antibody and incubated at 4° C. for 30 minutes in the dark. Samples were spun down at 1200 rpm for 5 minutes at 4° C. and washed twice with 200 μL of 1×PBS per well. Reconstituted samples in 200 μL of 1×PBS and read on Attune NxT cytometer. Analysis was done by Attune NxT software plotting the overlaying the histogram of anti-BCMA scFvs binding onto both negative and target cell lines. […] The BCMA cell binding affinity for exemplary anti-BCMA antibodies (in scFv format) was also generated with serial diluted scFvs as described above.
(§2) Anti-TACI scFv binders have been identified through Anti-TACI supernatant FACS screening assay with JVM2, MM1.R and RPMI8226 cell lines as described in above supernatant FACS screening assay. 200 nM of purified scFvs were subjected into FACS binding assay with TACI negative cell lines K562, H929 and TACI expressing cancer cell lines of JVM2, MM1.R, RPMI8226. The assay procedure and data analysis were described in Example 1 above.
Background: Flow cytometry measures light scatter and fluorescence of single cells or particles in a stream.

Assay [2] addresses T1, Transmembrane activator and CAML …. Nature of the assay: flow cytometry on MM1R cells (endogenous TACI). How it is done:
as §1, §2

For assay [3] the target is unchanged. Description: flow cytometry on MM1S cells (endogenous TACI).
The target in another assay is T2, soluble recombinant TACI (UniProt O14836 1-165, limits assumed).
T2 construct: Immobilized on a 384 well plate; construct not described
T2 sequence (looked up): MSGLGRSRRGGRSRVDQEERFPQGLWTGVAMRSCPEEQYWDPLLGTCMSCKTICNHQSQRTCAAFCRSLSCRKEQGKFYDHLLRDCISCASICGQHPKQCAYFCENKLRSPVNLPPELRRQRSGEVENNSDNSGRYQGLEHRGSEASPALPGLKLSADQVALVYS
Nature of the assay: ELISA, recombinant TACI immobilized on 384 well plate. As to the method:
Purified anti-TACI scFvs were subjected to ELISA binding assay. Recombinant TACI and negative protein were immobilized on the 384 well plate. 200 nM of anti-TACI scFv clones were serial diluted and tested for binding in the assay as described above.
On the technique in general: ELISA stands for enzyme-linked immunosorbent assay.

Assay [4] concerns the target T1, Transmembrane activator and CAML …. Nature of the assay: flow cytometry on RPMI8226 cells (endogenous TACI). How it is done: as §1, §2

B1: TC-03 (anti-TACI antibody in scFv format) (scFv, not shown: small tags and cut ends)
scFv: EVQLVESGGGLVQPGGSLRLSCATSGFTVNSDYMSWVRQSPEKGLEWVSFIYRGGSTYYADSVKGRFTVSRDTSKNTLYLQMNSLRVEDTAVYYCARGLGSSSDYWGQGTLVTVSSGGGGSGGGGSGGGGSSYELTQPHSVSESPGKTVTISCTRSSGSIANNYVQWYRHRPGSAPSTVIFEDDHRPSEVPDRFSGSIDSSSNSASLTISGLKTEDEADYYCQSYDGIDHYVFGTGTKLTVL
notes: Human scFv from mRNA display (live cell selections), VH-(G4S)3-VL
The term EC50 denotes the concentration giving half of the maximal effect. A low value points to greater potency. Consider B1, for which the EC50 in assay [1] came to 26.8 nM; in assay [2], 14 nM; in assay [3], 46.7 nM; in assay [4] it was 830 nM. Besides, in the assay with soluble recombinant TACI, the binding result is “no binding (tested: 200 nM, serial diluted)”.

The record behind these values is patent US20260097076A1 (ELPIS BIOPHARMACEUTICALS, published 2026).
